Results published in article PMC6477152 (2019).

B1: FIP200ΔN1115:Luciferase [human] / GST:SINTBADaa5-85 [human] (parent complex)
chain 1: ENYQVGLAELRTLMTIEKDQCISELISRHEEESNILKAELNKVTSLHNQAFEIEKNLKEQIIELQSKLDSELSALERQKDEKITQQEEKYEAIIQNLEKDRQKLVSSQEQDREQLIQKLNCEKDEAIQTALKEFKLEREVVEKELLEKVKHLENQIAKSPAIDSTRGDSSSLVAELQEKLQEEKAKFLEQLEEQEKRKNEEMQNVRTSLIAEQQTNFNTVLTREKMRKENIINDLSDKLKSTMQQQERDKDLIESLSEDRARLLEEKKKLEEEVSKLRSSSFVPSPYVATAPELYGACAPELPGESDRSAVETADEGRVDSAMETSMMSVQENIHMLSEEKQRIMLLERTLQLKEEENKRLNQRLMSQSMSSVSSRHSEKIAIRDFQVGDLVLIILDERHDNYVLFTVSPTLYFLHSESLPALDLKPGEGASGASRRPWVLGKVMEKEYCQAKKAQNRFKVPLGTKFYRVKAVSWNKKV
chain 2: FEDDISILTQEALGPSEVWLDSPGDPSLGGDMCSASHFALITAYGDIKERLGGLERENATLRRRLKVYEIKYPLISDFGEE

Variants of: B1
Assay: LUMIER assay; HEK293ET cell lysates; read off a plot

Row | Variant | response
1 | chain 1 ENYQVGLAELRTLMTIEKDQCISELISRHEEESNILKAELNKVTSLHNQAFEIEKNLKEQIIELQSKLDSELSALERQKDEKITQQEEKYEAIIQNLEKDRQKLVSSQEQDREQLIQKLNCEKDEAIQTALKEFKLEREVVEKELLEKVKHLENQIAKSPAIDSTRGDSSSLVAELQEKLQEEKAKFLEQLEEQEKRKNEEMQNVRTSLIAEQQTNFNTVLTREKMRKENIINDLSDKLKSTMQQQERDKDLIESLSEDRARLLEEKKKLEEEVSKLRSSSFVPSPYVATAPELYGACAPELPGESDRSAVETADEGRVDSAMETSMMSVQENIHMLSEEKQRIMLLERTLQLKEEENKRLNQRLMSQSMSSVSSRHSEKIAIRDFQVGDLVLIILDERHDNYVLFTVSPTLYFLHSESLPALDLKPGEGASGASRRPWVLGKVMEKEYCQSKKAQNRFKVPLGTKFYRVKAVSWNKKV [chain 1 A452S] | ~280 fold binding
2 | chain 1 ENYQVGLAELRTLMTIEKDQCISELISRHEEESNILKAELNKVTSLHNQAFEIEKNLKEQIIELQSKLDSELSALERQKDEKITQQEEKYEAIIQNLEKDRQKLVSSQEQDREQLIQKLNCEKDEAIQTALKEFKLEREVVEKELLEKVKHLENQIAKSPAIDSTRGDSSSLVAELQEKLQEEKAKFLEQLEEQEKRKNEEMQNVRTSLIAEQQTNFNTVLTREKMRKENIINDLSDKLKSTMQQQERDKDLIESLSEDRARLLEEKKKLEEEVSKLRSSSFVPSPYVATAPELYGACAPELPGESDRSAVETADEGRVDSAMETSMMSVQENIHMLSEEKQRIMLLERTLQLKEEENKRLNQRLMSQSMSSVSSRHSEKIAIRDFQVGDLVLIILDERHDNYVLFTVSPTLYFLHSESLPALDLKPGEGASGASRRPWVLGKVMEKEYCQAKKAQNRSKVPLGTKFYRVKAVSWNKKV [chain 1 F459S] | ~6.2 fold binding
3 | chain 1 ENYQVGLAELRTLMTIEKDQCISELISRHEEESNILKAELNKVTSLHNQAFEIEKNLKEQIIELQSKLDSELSALERQKDEKITQQEEKYEAIIQNLEKDRQKLVSSQEQDREQLIQKLNCEKDEAIQTALKEFKLEREVVEKELLEKVKHLENQIAKSPAIDSTRGDSSSLVAELQEKLQEEKAKFLEQLEEQEKRKNEEMQNVRTSLIAEQQTNFNTVLTREKMRKENIINDLSDKLKSTMQQQERDKDLIESLSEDRARLLEEKKKLEEEVSKLRSSSFVPSPYVATAPELYGACAPELPGESDRSAVETADEGRVDSAMETSMMSVQENIHMLSEEKQRIMLLERTLQLKEEENKRLNQRLMSQSMSSVSSRHSEKIAIRDFQVGDLVLIILDERHDNYVLFTVSPTLYFLHSESLPALDLKPGEGASGASRRPWVLGKVMEKEYCQAKKAQNRFKSPLGTKFYRVKAVSWNKKV [chain 1 V461S] | ~6.4 fold binding
4 | chain 1 ENYQVGLAELRTLMTIEKDQCISELISRHEEESNILKAELNKVTSLHNQAFEIEKNLKEQIIELQSKLDSELSALERQKDEKITQQEEKYEAIIQNLEKDRQKLVSSQEQDREQLIQKLNCEKDEAIQTALKEFKLEREVVEKELLEKVKHLENQIAKSPAIDSTRGDSSSLVAELQEKLQEEKAKFLEQLEEQEKRKNEEMQNVRTSLIAEQQTNFNTVLTREKMRKENIINDLSDKLKSTMQQQERDKDLIESLSEDRARLLEEKKKLEEEVSKLRSSSFVPSPYVATAPELYGACAPELPGESDRSAVETADEGRVDSAMETSMMSVQENIHMLSEEKQRIMLLERTLQLKEEENKRLNQRLMSQSMSSVSSRHSEKIAIRDFQVGDLVLIILDERHDNYVLFTVSPTLYFLHSESLPALDLKPGEGASGASRRPWVLGKVMEKEYCQAKKAQSRFKVPLGTKFYRVKAVSWNKKV [chain 1 N457S] | ~7.8 fold binding

Variants of: B1
Assay: LUMIER assay; HEK293ET cell lysates; bacterially expressed GST bait; read off a plot

Row | Variant | response
5 | chain 1 ENYQVGLAELRTLMTIEKDQCISELISRHEEESNILKAELNKVTSLHNQAFEIEKNLKEQIIELQSKLDSELSALERQKDEKITQQEEKYEAIIQNLEKDRQKLVSSQEQDREQLIQKLNCEKDEAIQTALKEFKLEREVVEKELLEKVKHLENQIAKSPAIDSTRGDSSSLVAELQEKLQEEKAKFLEQLEEQEKRKNEEMQNVRTSLIAEQQTNFNTVLTREKMRKENIINDLSDKLKSTMQQQERDKDLIESLSEDRARLLEEKKKLEEEVSKLRSSSFVPSPYVATAPELYGACAPELPGESDRSAVETADEGRVDSAMETSMMSVQENIHMLSEEKQRIMLLERTLQLKEEENKRLNQRLMSQSMSSVSSRHSEKIAIRDFQVGDLVLIILDERHDNYVLFTVSPTLYFLHSESLPALDLKPGEGASGASRRPWVLGKVMEKEYCQSKKAQNRFKVPLGTKFYRVKAVSWNKKV [chain 1 A452S] | ~59 fold binding
6 | chain 1 ENYQVGLAELRTLMTIEKDQCISELISRHEEESNILKAELNKVTSLHNQAFEIEKNLKEQIIELQSKLDSELSALERQKDEKITQQEEKYEAIIQNLEKDRQKLVSSQEQDREQLIQKLNCEKDEAIQTALKEFKLEREVVEKELLEKVKHLENQIAKSPAIDSTRGDSSSLVAELQEKLQEEKAKFLEQLEEQEKRKNEEMQNVRTSLIAEQQTNFNTVLTREKMRKENIINDLSDKLKSTMQQQERDKDLIESLSEDRARLLEEKKKLEEEVSKLRSSSFVPSPYVATAPELYGACAPELPGESDRSAVETADEGRVDSAMETSMMSVQENIHMLSEEKQRIMLLERTLALKEEENKRLNQRLMSQSMSSVSSRHSEKIAIRDFQVGDLVLIILDERHDNYVLFTVSPTLYFLHSESLPALDLKPGEGASGASRRPWVLGKVMEKEYCQAKKAQNRFKVPLGTKFYRVKAVSWNKKV [chain 1 Q352A] | ~210 fold binding
